The values that follow come from publication PMC7749165, “The δ subunit and NTPase HelD institute a two-pronged mechanism for RNA polymerase recycling” (Nature Communications, 2020).

For test [1], the target named is T1, RNAP β′ subunit with chromosomally encoded C-terminal His10-tag (B. subtilis, UniProt P37871 1-1199).
T1 construct: RNAP β′ subunit, B. subtilis; source: B. subtilis strains MH5636, LK782, LK1032; in lysate and purified as part of RNAP (Ni-NTA, heparin, SEC); not shown: His10, C-terminal, kept
T1 sequence (P37871 whole entry): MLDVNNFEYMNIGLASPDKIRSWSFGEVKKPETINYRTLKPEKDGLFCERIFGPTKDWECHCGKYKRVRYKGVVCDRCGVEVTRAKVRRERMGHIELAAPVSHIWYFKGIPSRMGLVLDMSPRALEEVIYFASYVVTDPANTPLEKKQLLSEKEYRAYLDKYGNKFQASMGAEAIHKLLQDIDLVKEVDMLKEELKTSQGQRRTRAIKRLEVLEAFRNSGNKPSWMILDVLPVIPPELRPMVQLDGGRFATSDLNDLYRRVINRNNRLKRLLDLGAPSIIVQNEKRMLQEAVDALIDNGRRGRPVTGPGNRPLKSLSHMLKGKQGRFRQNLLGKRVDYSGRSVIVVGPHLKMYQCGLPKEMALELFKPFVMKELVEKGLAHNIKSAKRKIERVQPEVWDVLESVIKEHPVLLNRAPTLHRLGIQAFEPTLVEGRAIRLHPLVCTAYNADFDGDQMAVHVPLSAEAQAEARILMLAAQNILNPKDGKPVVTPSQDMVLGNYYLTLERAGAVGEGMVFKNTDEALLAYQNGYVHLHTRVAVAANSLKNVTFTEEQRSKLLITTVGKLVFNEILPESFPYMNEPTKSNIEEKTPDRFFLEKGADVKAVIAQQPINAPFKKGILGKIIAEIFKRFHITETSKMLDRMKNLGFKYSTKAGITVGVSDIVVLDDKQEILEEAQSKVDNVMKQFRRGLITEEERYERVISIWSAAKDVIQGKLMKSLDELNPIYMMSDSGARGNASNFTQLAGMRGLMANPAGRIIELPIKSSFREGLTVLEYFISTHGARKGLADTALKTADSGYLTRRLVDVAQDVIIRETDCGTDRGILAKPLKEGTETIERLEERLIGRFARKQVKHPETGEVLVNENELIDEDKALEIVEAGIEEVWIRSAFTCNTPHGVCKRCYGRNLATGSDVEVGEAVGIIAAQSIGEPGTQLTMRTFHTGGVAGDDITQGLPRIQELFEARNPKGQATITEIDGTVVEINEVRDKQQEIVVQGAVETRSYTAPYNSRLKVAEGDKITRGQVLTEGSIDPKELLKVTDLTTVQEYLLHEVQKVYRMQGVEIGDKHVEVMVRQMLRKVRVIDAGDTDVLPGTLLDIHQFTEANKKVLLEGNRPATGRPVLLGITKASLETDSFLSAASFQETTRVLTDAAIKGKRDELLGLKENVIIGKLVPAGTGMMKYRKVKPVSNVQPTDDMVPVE
Description: co-purification; RNAP captured from lysates of stationary phase B. subtilis by the C-terminal His10-tag on β′ (Ni-NTA), then heparin column and SEC, 4 °C; content of the fractions told from gels (strains MH5636, LK782, LK1032). The settings on record: partners not purified.

For test [2], the target named is T2, HelD (recombinant B. subtilis NTPase HelD) (Bacillus subtilis (strain 168), UniProt O32215).
T2 chain: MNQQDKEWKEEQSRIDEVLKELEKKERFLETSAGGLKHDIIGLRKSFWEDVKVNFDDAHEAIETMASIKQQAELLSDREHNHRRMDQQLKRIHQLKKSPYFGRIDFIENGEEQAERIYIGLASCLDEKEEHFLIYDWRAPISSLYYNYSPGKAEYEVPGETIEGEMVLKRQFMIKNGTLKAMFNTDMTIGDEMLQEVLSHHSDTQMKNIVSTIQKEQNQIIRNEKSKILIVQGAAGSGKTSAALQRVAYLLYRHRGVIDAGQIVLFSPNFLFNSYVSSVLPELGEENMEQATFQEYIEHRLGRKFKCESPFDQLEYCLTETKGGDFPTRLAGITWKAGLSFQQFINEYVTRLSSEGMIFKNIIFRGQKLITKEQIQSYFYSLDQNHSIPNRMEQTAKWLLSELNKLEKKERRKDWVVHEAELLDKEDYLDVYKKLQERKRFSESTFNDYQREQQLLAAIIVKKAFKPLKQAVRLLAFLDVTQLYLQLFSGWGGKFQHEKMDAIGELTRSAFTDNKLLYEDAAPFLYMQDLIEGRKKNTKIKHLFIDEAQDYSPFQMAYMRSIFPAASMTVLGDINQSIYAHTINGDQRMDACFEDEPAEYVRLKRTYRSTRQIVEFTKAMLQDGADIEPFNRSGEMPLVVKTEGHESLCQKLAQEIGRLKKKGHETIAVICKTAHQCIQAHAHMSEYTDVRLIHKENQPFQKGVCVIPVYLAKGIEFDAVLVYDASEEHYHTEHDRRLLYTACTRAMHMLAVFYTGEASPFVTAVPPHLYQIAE
In words: analytical SEC with SDS-PAGE.

Test [3] addresses T1, RNAP β′ subunit with chromosomally …. Description: SEC; HelD release assay: the same RNAP-HelD complex mixed with 5 mM Mg^2+-ATPγS, AMPPNP or ATP in buffer I; Superdex 200 Increase PC 3.2, 4 °C; fractions on SDS-PAGE. The conditions noted are these: both partners purified.

B1: RNAP β subunit (natural protein, B. subtilis (endogenous), UniProt P37870 1-1193, looked up)
chain: MTGQLVQYGRHRQRRSYARISEVLELPNLIEIQTSSYQWFLDEGLREMFQDISPIEDFTGNLSLEFIDYSLGEPKYPVEESKERDVTYSAPLRVKVRLINKETGEVKDQDVFMGDFPIMTDTGTFIINGAERVIVSQLVRSPSVYFSGKVDKNGKKGFTATVIPNRGAWLEYETDAKDVVYVRIDRTRKLPVTVLLRALGFGSDQEILDLIGENEYLRNTLDKDNTENSDKALLEIYERLRPGEPPTVENAKSLLDSRFFDPKRYDLANVGRYKINKKLHIKNRLFNQRLAETLVDPETGEILAEKGQILDRRTLDKVLPYLENGIGFRKLYPNGGVVEDEVTLQSIKIFAPTDQEGEQVINVIGNAYIEEEIKNITPADIISSISYFFNLLHGVGDTDDIDHLGNRRLRSVGELLQNQFRIGLSRMERVVRERMSIQDTNTITPQQLINIRPVIASIKEFFGSSQLSQFMDQTNPLAELTHKRRLSALGPGGLTRERAGMEVRDVHYSHYGRMCPIETPEGPNIGLINSLSSYAKVNRFGFIETPYRRVDPETGKVTGRIDYLTADEEDNYVVAQANARLDDEGAFIDDSIVARFRGENTVVSRNRVDYMDVSPKQVVSAATACIPFLENDDSNRALMGANMQRQAVPLMQPEAPFVGTGMEYVSGKDSGAAVICKHPGIVERVEAKNVWVRRYEEVDGQKVKGNLDKYSLLKFVRSNQGTCYNQRPIVSVGDEVVKGEILADGPSMELGELALGRNVMVGFMTWDGYNYEDAIIMSERLVKDDVYTSIHIEEYESEARDTKLGPEEITRDIPNVGEDALRNLDDRGIIRIGAEVKDGDLLVGKVTPKGVTELTAEERLLHAIFGEKAREVRDTSLRVPHGGGGIIHDVKVFNREDGDELPPGVNQLVRVYIVQKRKISEGDKMAGRHGNKGVISKILPEEDMPYLPDGTPIDIMLNPLGVPSRMNIGQVLELHMGMAARYLGIHIASPVFDGAREEDVWETLEEAGMSRDAKTVLYDGRTGEPFDNRVSVGIMYMIKLAHMVDDKLHARSTGPYSLVTQQPLGGKAQFGGQRFGEMEVWALEAYGAAYTLQEILTVKSDDVVGRVKTYEAIVKGDNVPEPGVPESFKVLIKELQSLGMDVKILSGDEEEIEMRDLEDEEDAKQADGLALSGDEEPEETASADVERDVVTKE
notes: RNAP β subunit, B. subtilis; source: endogenous, B. subtilis; in lysate and purified as part of RNAP
Turning to B1, in test [1], the binding result is listed as “binds”.

B2: RNAP δ subunit, endogenous (natural protein, B. subtilis (endogenous), UniProt P12464 1-173, looked up)
chain: MGIKQYSQEELKEMALVEIAHELFEEHKKPVPFQELLNEIASLLGVKKEELGDRIAQFYTDLNIDGRFLALSDQTWGLRSWYPYDQLDEETQPTVKAKKKKAKKAVEEDLDLDEFEEIDEDDLDLDEVEEELDLEADDFDEEDLDEDDDDLEIEEDIIDEDDEDYDDEEEEIK
notes: RNAP δ subunit, B. subtilis; NTD residues 1-90, CTR residues 91-173; source: endogenous, B. subtilis MH5636 or LK782; in lysate and purified as part of RNAP
With B2, the binding result in test [2] and in test [3] was “binds” throughout.

B3: δ^NTD (N-terminal domain of the RNAP δ subunit) (protein)
chain: MGIKQYSQEELKEMALVEIAHELFEEHKKPVPFQELLNEIASLLGVKKEELGDRIAQFYTDLNIDGRFLALSDQTWGLRSWYPYDQLDEE
Regarding B3, in test [2], the binding result is on record as “no binding”.

B4: RNAP α subunit (natural protein, B. subtilis (endogenous), UniProt P20429 1-314, looked up)
chain: MIEIEKPKIETVEISDDAKFGKFVVEPLERGYGTTLGNSLRRILLSSLPGAAVTSIQIDGVLHEFSTIEGVVEDVTTIILHIKKLALKIYSDEEKTLEIDVQGEGTVTAADITHDSDVEILNPDLHIATLGENASFRVRLTAQRGRGYTPADANKRDDQPIGVIPIDSIYTPVSRVSYQVENTRVGQVANYDKLTLDVWTDGSTGPKEAIALGSKILTEHLNIFVGLTDEAQHAEIMVEKEEDQKEKVLEMTIEELDLSVRSYNCLKRAGINTVQELANKTEEDMMKVRNLGRKSLEEVKAKLEELGLGLRKDD
notes: RNAP α subunit, B. subtilis; only the N-terminal domains have density in the structures; also called α1; α2; source: endogenous, B. subtilis; in lysate and purified as part of RNAP
Take B4: the binding result in test [1] is “binds”.
